Results taken from the supplement of paper PMC5998384.

What was measured:
HeLa Kyoto [1] = experiment: solubility change mitosis vs G1/S (difference of NP-40 vs SDS log2 ratios) (log2 ratio difference); higher = more soluble in mitosis
HeLa Kyoto [2] = experiment: thermal stability score vs G1/S (z-score of summed log2 fold changes over temperatures); higher = more thermally stable than in G1/S
HeLa Kyoto [3] = experiment: solubility in G1/S (NP-40 vs SDS abundance) (log2 ratio); higher = more soluble; settings: cell cycle stage: G1/S
HeLa Kyoto [4] = experiment: melting temperature (median over replicates), in situ; higher = more thermally stable
[5] = cell cycle stage: early G1 (4.5 h after nocodazole release)
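For melting temperature (median over replicates), in situ in this document: HeLa Kyoto cells synchronized by double thymidine or nocodazole block, proteins quantified by TMT10plex mass spectrometry, three independent biological replicates.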
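For solubility change mitosis vs G1/S (difference of NP-40 vs SDS log2 ratios) in this document: synchronized HeLa Kyoto cells (double thymidine block for G1/S, nocodazole release for mitosis), protein amounts in NP-40 versus SDS lysates quantified by mass spectrometry, three biological replicates.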
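For solubility in G1/S (NP-40 vs SDS abundance) in this document: HeLa Kyoto cells arrested at G1/S by double thymidine block, proteins quantified by TMT10plex mass spectrometry in mild NP-40 versus SDS extracts, three biological replicates.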
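For thermal stability score vs G1/S (z-score of summed log2 fold changes over temperatures) in this document: synchronized HeLa Kyoto cells, proteins quantified by TMT10plex mass spectrometry, three biological replicates, mitosis taken 0.5 h after nocodazole release, G1/S directly after double thymidine block.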

| Sequence | solubility change mitosis (log2) (HeLa Kyoto [1]) | thermal stability score (HeLa Kyoto [2]; [5]) | thermal stability score (HeLa Kyoto [2]; cell cycle stage: mitosis) | solubility in G1/S (log2) (HeLa Kyoto [3]) | melting temperature (HeLa Kyoto [4]; cell cycle stage: G1/S) [°C] | melting temperature (HeLa Kyoto [4]; cell cycle stage: mitosis) [°C] |
| --- | --- | --- | --- | --- | --- | --- |
| MGGKNKKHKAPAAAVVRAAVSASRAKSAEAGIAGEAQSKKPVSRPATAAAAAAGSREPRVKQGPKIYSFNSTNDSSGPANLDKSILKVVINNKLEQRIIGVINEHKKQNNDKGMISGRLTAKKLQDLYMALQAFSFKTKDIEDAMTNTLLYGGDLHSALDWLCLNLSDDALPEGFSQEFEEQQPKSRPKFQSPQIQATISPPLQPKTKTYEEDPKSKPKKEEKNMEVNMKEWILRYAEQQNEEEKNENSKSLEEEEKFDPNERYLHLAAKLLDAKEQAATFKLEKNKQGQKEAQEKIRKFQREMETLEDHPVFNPAMKISHQQNERKKPPVATEGESALNFNLFEKSAAATEEEKDKKKEPHDVRNFDYTARSWTGKSPKQFLIDWVRKNLPKSPNPSFEKVPVGRYWKCRVRVIKSEDDVLVVCPTILTEDGMQAQHLGATLALYRLVKGQSVHQLLPPTYRDVWLEWSDAEKKREELNKMETNKPRDLFIAKLLNKLKQQQQQQQQHSENKRENSEDPEESWENLVSDEDFSALSLESANVEDLEPVRNLFRKLQSTPKYQKLLKERQQLPVFKHRDSIVETLKRHRVVVVAGETGSGKSTQVPHFLLEDLLLNEWEASKCNIVCTQPRRISAVSLANRVCDELGCENGPGGRNSLCGYQIRMESRACESTRLLYCTTGVLLRKLQEDGLLSNVSHVIVDEVHERSVQSDFLLIILKEILQKRSDLHLILMSATVDSEKFSTYFTHCPILRISGRSYPVEVFHLEDIIEETGFVLEKDSEYCQKFLEEEEEVTINVTSKAGGIKKYQEYIPVQTGAHADLNPFYQKYSSRTQHAILYMNPHKINLDLILELLAYLDKSPQFRNIEGAVLIFLPGLAHIQQLYDLLSNDRRFYSERYKVIALHSILSTQDQAAAFTLPPPGVRKIVLATNIAETGITIPDVVFVIDTGRTKENKYHESSQMSSLVETFVSKASALQRQGRAGRVRDGFCFRMYTRERFEGFMDYSVPEILRVPLEELCLHIMKCNLGSPEDFLSKALDPPQLQVISNAMNLLRKIGACELNEPKLTPLGQHLAALPVNVKIGKMLIFGAIFGCLDPVATLAAVMTEKSPFTTPIGRKDEADLAKSALAMADSDHLTIYNAYLGWKKARQEGGYRSEITYCRRNFLNRTSLLTLEDVKQELIKLVKAAGFSSSTTSTSWEGNRASQTLSFQEIALLKAVLVAGLYDNVGKIIYTKSVDVTEKLACIVETAQGKAQVHPSSVNRDLQTHGWLLYQEKIRYARVYLRETTLITPFPVLLFGGDIEVQHRERLLSIDGWIYFQAPVKIAVIFKQLRVLIDSVLRKKLENPKMSLENDKILQIITELIKTENN [DHX29] | 0.00585 | -0.474 | -0.738 | -0.444 | 51.7 | 50.7 |
| MGGLFSRWRTKPSTVEVLESIDKEIQALEEFREKNQRLQKLWVGRLILYSSVLYLFTCLIVYLWYLPDEFTARLAMTLPFFAFPLIIWSIRTVIIFFFSKRTERNNEALDDLKSQRKKILEEVMEKETYKTAKLILERFDPDSKKAKECEPPSAGAAVTARPGQEIRQRTAAQRNLSPTPASPNQGPPPQVPVSPGPPKDSSAPGGPPERTVTPALSSNVLPRHLGSPATSVPGMGLHPPGPPLARPILPRERGALDRIVEYLVGDGPQNRYALICQQCFSHNGMALKEEFEYIAFRCAYCFFLNPARKTRPQAPRLPEFSFEKRQVVEGSSSVGPLPSGSVLSSDNQFNEESLEHDVLDDNTEQTDDKIPATEQTNQVIEKASDSEEPEEKQETENEEASVIETNSTVPGADSIPDPELSGESLTAE | -0.0648 | -1.47 | -0.475 | -0.311 | 55 | 56.9 |
| MGGPRGAGWVAAGLLLGAGACYCIYRLTRGRRRGDRELGIRSSKSAGALEEGTSEGQLCGRSARPQTGGTWESQWSKTSQPEDLTDGSYDDVLNAEQLQKLLYLLESTEDPVIIERALITLGNNAAFSVNQAIIRELGGIPIVANKINHSNQSIKEKALNALNNLSVNVENQIKIKIYISQVCEDVFSGPLNSAVQLAGLTLLTNMTVTNDHQHMLHSYITDLFQVLLTGNGNTKVQVLKLLLNLSENPAMTEGLLRAQVDSSFLSLYDSHVAKEILLRVLTLFQNIKNCLKIEGHLAVQPTFTEGSLFFLLHGEECAQKIRALVDHHDAEVKEKVVTIIPKI [ARMC10] | -0.108 | 0.978 | 1.04 | 0.226 | 50.8 | 49.7 |
| MGGTTSTRRVTFEADENENITVVKGIRLSENVIDRMKESSPSGSKSQRYSGAYGASVSDEELKRRVAEELALEQAKKESEDQKRLKQAKELDRERAAANEQLTRAILRERICSEEERAKAKHLARQLEEKDRVLKKQDAFYKEQLARLEERSSEFYRVTTEQYQKAAEEVEAKFKRYESHPVCADLQAKILQCYRENTHQTLKCSALATQYMHCVNHAKQSMLEKGG [CHCHD3] | 0.291 | -2.54 | -6 | 0.229 | 54.6 | 54.2 |
| MGHRFLRGLLTLLLPPPPLYTRHRMLGPESVPPPKRSRSKLMAPPRIGTHNGTFHCDEALACALLRLLPEYRDAEIVRTRDPEKLASCDIVVDVGGEYDPRRHRYDHHQRSFTETMSSLSPGKPWQTKLSSAGLIYLHFGHKLLAQLLGTSEEDSMVGTLYDKMYENFVEEVDAVDNGISQWAEGEPRYALTTTLSARVARLNPTWNHPDQDTEAGFKRAMDLVQEEFLQRLDFYQHSWLPARALVEEALAQRFQVDPSGEIVELAKGACPWKEHLYHLESGLSPPVAIFFVIYTDQAGQWRIQCVPKEPHSFQSRLPLPEPWRGLRDEALDQVSGIPGCIFVHASGFIGGHRTREGALSMARATLAQRSYLPQIS [C12ORF10] | -0.074 | -0.294 | -1.46 | 0.418 | 53.8 | 53.9 |
| MGILEKISEIEKEIARTQKNKATEYHLGLLKAKLAKYRAQLLEPSKSASSKGEGFDVMKSGDARVALIGFPSVGKSTFLSLMTSTASEAASYEFTTLTCIPGVIEYKGANIQLLDLPGIIEGAAQGKGRGRQVIAVARTADVIIMMLDATKGEVQRSLLEKELESVGIRLNKHKPNIYFKPKKGGGISFNSTVTLTQCSEKLVQLILHEYKIFNAEVLFREDCSPDEFIDVIVGNRVYMPCLYVYNKIDQISMEEVDRLARKPNSVVISCGMKLNLDYLLEMLWEYLALTCIYTKKRGQRPDFTDAIILRKGASVEHVCHRIHRSLASQFKYALVWGTSTKYSPQRVGLTHTMEHEDVIQIVKK [DRG2] | -0.113 | -0.377 | -0.907 | 0.0131 | 51.9 | 51.6 |
| MGILSITDQPPLVQAIFSRDVEEVRSLLSQKENINVLDQERRTPLHAAAYVGDVPILQLLLMSGANVNAKDTLWLTPLHRAAASRNEKVLGLLLAHSADVNARDKLWQTPLHVAAANRATKCAEALAPLLSSLNVADRSGRSALHHAVHSGHLETVNLLLNKGASLNVCDKKERQPLHWAAFLGHLEVLKLLVARGADLGCKDRKGYGLLHTAAASGQIEVVKYLLRMGAEIDEPNAFGNTALHIACYLGQDAVAIELVNAGANVNQPNDKGFTPLHVAAVSTNGALCLELLVNNGADVNYQSKEGKSPLHMAAIHGRFTRSQILIQNGSEIDCADKFGNTPLHVAARYGHELLISTLMTNGADTARRGIHDMFPLHLAVLFGFSDCCRKLLSSGQLYSIVSSLSNEHVLSAGFDINTPDNLGRTCLHAAASGGNVECLNLLLSSGADLRRRDKFGRTPLHYAAANGSYQCAVTLVTAGAGVNEADCKGCSPLHYAAASDTYRRAEPHTPSSHDAEEDEPLKESRRKEAFFCLEFLLDNGADPSLRDRQGYTAVHYAAAYGNRQNLELLLEMSFNCLEDVESTIPVSPLHLAAYNGHCEALKTLAETLVNLDVRDHKGRTALFLATERGSTECVEVLTAHGASALIKERKRKWTPLHAAAASGHTDSLHLLIDSGERADITDVMDAYGQTPLMLAIMNGHVDCVHLLLEKGSTADAADLRGRTALHRGAVTGCEDCLAALLDHDAFVLCRDFKGRTPIHLASACGHTAVLRTLLQAALSTDPLDAGVDYSGYSPMHWASYTGHEDCLELLLEHSPFSYLEGNPFTPLHCAVINNQDSTTEMLLGALGAKIVNSRDAKGRTPLHAAAFADNVSGLRMLLQHQAEVNATDHTGRTALMTAAENGQTAAVEFLLYRGKADLTVLDENKNTALHLACSKGHEKCALMILAETQDLGLINATNSALQMPLHIAARNGLASVVQALLSHGATVLAVDEEGHTPALACAPNKDVADCLALILSTMKPFPPKDAVSPFSFSLLKNCSIAAAKTVGGCGALPHGASCPYSQERPGAIGLDGCYSE [ANKRD52] | -0.171 | -0.0695 | 0.105 | -0.0981 | 51.5 | 49.7 |
| MGIQTSPVLLASLGVGLVTLLGLAVGSYLVRRSRRPQVTLLDPNEKYLLRLLDKTTVSHNTKRFRFALPTAHHTLGLPVGKHIYLSTRIDGSLVIRPYTPVTSDEDQGYVDLVIKVYLKGVHPKFPEGGKMSQYLDSLKVGDVVEFRGPSGLLTYTGKGHFNIQPNKKSPPEPRVAKKLGMIAGGTGITPMLQLIRAILKVPEDPTQCFLLFANQTEKDIILREDLEELQARYPNRFKLWFTLDHPPKDWAYSKGFVTADMIREHLPAPGDDVLVLLCGPPPMVQLACHPNLDKLGYSQKMRFTY [CYB5R1] | -0.041 | -0.825 | -0.661 | 0.339 | 54.1 | 55.3 |
| MGKAAAPSRGGGCGGRSRGLSSLFTVVPCLSCHTAAPGMSASTSGSGPEPKPQPQPVPEPERGPLSEQVSEAVSEAVPRSEPVSETTSEPEPGAGQPSELLQGSRPGSESSSGVGAGPFTKAASEPLSRAVGSATFLRPESGSLPALKPLPLLRPGQAKTPLGVPMSGTGTTSSAPLALLPLDSFEGWLLKWTNYLKGYQRRWFVLGNGLLSYYRNQGEMAHTCRGTINLSTAHIDTEDSCGILLTSGARSYHLKASSEVDRQQWITALELAKAKAVRVMNTHSDDSGDDDEATTPADKSELHHTLKNLSLKLDDLSTCNDLIAKHGAALQRSLTELDGLKIPSESGEKLKVVNERATLFRITSNAMINACRDFLELAEIHSRKWQRALQYEQEQRVHLEETIEQLAKQHNSLERAFHSAPGRPANPSKSFIEGSLLTPKGEDSEEDEDTEYFDAMEDSTSFITVITEAKEDSRKAEGSTGTSSVDWSSADNVLDGASLVPKGSSKVKRRVRIPNKPNYSLNLWSIMKNCIGRELSRIPMPVNFNEPLSMLQRLTEDLEYHHLLDKAVHCTSSVEQMCLVAAFSVSSYSTTVHRIAKPFNPMLGETFELDRLDDMGLRSLCEQVSHHPPSAAHYVFSKHGWSLWQEITISSKFRGKYISIMPLGAIHLEFQASGNHYVWRKSTSTVHNIIVGKLWIDQSGDIEIVNHKTNDRCQLKFLPYSYFSKEAARKVTGVVSDSQGKAHYVLSGSWDEQMECSKVMHSSPSSPSSDGKQKTVYQTLSAKLLWKKYPLPENAENMYYFSELALTLNEHEEGVAPTDSRLRPDQRLMEKGRWDEANTEKQRLEEKQRLSRRRRLEACGPGSSCSSEEEKEADAYTPLWFEKRLDPLTGEMACVYKGGYWEAKEKQDWHMCPNIF [OSBP2] | -0.137 | -0.699 | -0.707 | 0.0107 | 50.7 | 51 |
